According to FireProtDB:
“And” between values parts separate entries of the source, which are not always exact repeats. Equal entries are not always repeated.

B1: Collagen alpha-1(XVIII) chain, P39060 (parent)
chain: MAPYPCGCHILLLLFCCLAAARANLLNLNWLWFNNEDTSHAATTIPEPQGPLPVQPTADTTTHVTPRNGSTEPATAPGSPEPPSELLEDGQDTPTSAESPDAPEENIAGVGAEILNVAKGIRSFVQLWNDTVPTESLARAETLVLETPVGPLALAGPSSTPQENGTTLWPSRGIPSSPGAHTTEAGTLPAPTPSPPSLGRPWAPLTGPSVPPPSSGRASLSSLLGGAPPWGSLQDPDSQGLSPAAAAPSQQLQRPDVRLRTPLLHPLVMGSLGKHAAPSAFSSGLPGALSQVAVTTLTRDSGAWVSHVANSVGPGLANNSALLGADPEAPAGRCLPLPPSLPVCGHLGISRFWLPNHLHHESGEQVRAGARAWGGLLQTHCHPFLAWFFCLLLVPPCGSVPPPAPPPCCQFCEALQDACWSRLGGGRLPVACASLPTQEDGYCVLIGPAAERISEEVGLLQLLGDPPPQQVTQTDDPDVGLAYVFGPDANSGQVARYHFPSLFFRDFSLLFHIRPATEGPGVLFAITDSAQAMVLLGVKLSGVQDGHQDISLLYTEPGAGQTHTAASFRLPAFVGQWTHLALSVAGGFVALYVDCEEFQRMPLARSSRGLELEPGAGLFVAQAGGADPDKFQGVIAELKVRRDPQVSPMHCLDEEGDDSDGASGDSGSGLGDARELLREETGAALKPRLPAPPPVTTPPLAGGSSTEDSRSEEVEEQTTVASLGAQTLPGSDSVSTWDGSVRTPGGRVKEGGLKGQKGEPGVPGPPGRAGPPGSPCLPGPPGLPCPVSPLGPAGPALQTVPGPQGPPGPPGRDGTPGRDGEPGDPGEDGKPGDTGPQGFPGTPGDVGPKGDKGDPGVGERGPPGPQGPPGPPGPSFRHDKLTFIDMEGSGFGGDLEALRGPRGFPGPPGPPGVPGLPGEPGRFGVNSSDVPGPAGLPGVPGREGPPGFPGLPGPPGPPGREGPPGRTGQKGSLGEAGAPGHKGSKGAPGPAGARGESGLAGAPGPAGPPGPPGPPGPPGPGLPAGFDDMEGSGGPFWSTARSADGPQGPPGLPGLKGDPGVPGLPGAKGEVGADGVPGFPGLPGREGIAGPQGPKGDRGSRGEKGDPGKDGVGQPGLPGPPGPPGPVVYVSEQDGSVLSVPGPEGRPGFAGFPGPAGPKGNLGSKGERGSPGPKGEKGEPGSIFSPDGGALGPAQKGAKGEPGFRGPPGPYGRPGYKGEIGFPGRPGRPGMNGLKGEKGEPGDASLGFGMRGMPGPPGPPGPPGPPGTPVYDSNVFAESSRPGPPGLPGNQGPPGPKGAKGEVGPPGPPGQFPFDFLQLEAEMKGEKGDRGDAGQKGERGEPGGGGFFGSSLPGPPGPPGPPGPRGYPGIPGPKGESIRGQPGPPGPQGPPGIGYEGRQGPPGPPGPPGPPSFPGPHRQTISVPGPPGPPGPPGPPGTMGASSGVRLWATRQAMLGQVHEVPEGWLIFVAEQEELYVRVQNGFRKVQLEARTPLPRGTDNEVAALQPPVVQLHDSNPYPRREHPHPTARPWRADDILASPPRLPEPQPYPGAPHHSSYVHLRPARPTSPPAHSHRDFQPVLHLVALNSPLSGGMRGIRGADFQCFQQARAVGLAGTFRAFLSSRLQDLYSIVRRADRAAVPIVNLKDELLFPSWEALFSGSEGPLKPGARIFSFDGKDVLRHPTWPQKSVWHGSDPNGRRLTESYCETWRTEAPSATGQASSLLGGRLLGQSAASCHHAYIVLCIENSFMTASK
B2: Thioredoxin, P80579 (parent)
chain: ATMTLTDANFQQAIQGDKPVLVDFWAAWCGPCRMMAPVLEEFAEAHADKVTVAKLNVDENPETTSQFGIMSIPTLILFKGGRPVKQLIGYQPKEQLEAQLADVLQ

Legend:
[1] = variants of: B1; conditions: Homo sapiens; pH 7.4; 20 °C; GdnHCl; Fluorescence; Tris-HCl 5 mM; structure 1BNL; whole UniProt chain shown
[2] = variants of: B2; conditions: Alicyclobacillus acidocaldarius subsp. acidocaldarius, pH 7, CD, Sodium phosphate 10 mM, reversible: yes, structure 1QUW, whole UniProt chain shown

D1647A
denaturant m value [1]: 2.86 kcal/mol/M and 1.57 kcal/mol/M | denaturant midpoint (higher = more stable) [1]: 1.79 M | unfolding free energy [1]: 5.12 kcal/mol and 2.82 kcal/mol

ATMTLTDANFQQAIQGDGPVLVDFWAAWCGPCRMMAPVLEEFAEAHADKVTVAKLNVDENPETTSQFGIMSIPTLILFKGGRPVKQLIGYQPKEQLEAQLADVLQ [K18G]
Tm ([2]; Thermal): 78.1 °C and 78.8 °C | denaturant midpoint (higher = more stable) ([2]; Urea): 5.2 M

ATMTLTDANFQQAIQGDKPVLVDFWAAWCGPCRMMAPVLEEFAEAHADKVTVAKLNVDENPETTSQFGIMSIPTLILFKGGRPVKQLIGYQPKEQLEAQLAXVLQ [D102X]
denaturant midpoint (higher = more stable) ([2]; GdHCl): 2 M | denaturant midpoint (higher = more stable) ([2]; Urea): 4 M
